In the nanobody polyreactivity screen of Harvey et al. (2022):

Assay: yeast display, Sf9 membrane polyspecificity reagent, FACS + sequencing; frameworks hold sequencing errors
Procedure, shortened: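 In a synthetic yeast display library (Saccharomyces cerevisiae BJ5465), nanobody expression was induced with galactose for 36–48 hours. FACS gates were set low and high (top ~1%) using anti-HA fluorescence for expression and streptavidin fluorescence for binding of the Sf9 membrane reagent. Each polyreactivity label is drawn from the gate of origin.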

Sequence	polyreactivity (PSR sort gate)
QVQHEDSGGGLVQAGGSLRLSCAASGRIFSFYTMGWYRQAPGKERELVAAISGSGGSTYYADSVKGRFTISRDNAKNTVYLQMNSLKPEDTAVYYCARRRQRGGVNYWGQGTQVTVSS	high polyreactivity
QVQLVESGGGLVQAGGSLRLSCAASGSIISYYAMGWYRQAPGKERELVAAISWSGGSTYYADSVKGRFTISRDNAKNTVYLQMNSLKPEDTAVYYCNTVRRLKRYSSYGHDYWGQGTQVTVSS	high polyreactivity
QVQLQESGGGLVQAGGSLRLSCAASGNFFDADIMGWYRQAPGKERELVASITDGGSTNYADSVKGRFTISRGNTKNTVYLLMNCLKPEDTSVYYCAAIAYPDMPTYFDYNSDYFYWGQGTQVTVSS	high polyreactivity
QVQLVESGGGIVQAGGSLRLSCAASGSTFYVYALGWYRQAPGKERELVAAINFNGGGTYYADSVKGRFTISRDNAKNTVYLQMNRLKPEDTAVYYCNAEDDYTYDRSFGGYKYDYWGQGTQVTVSS	low polyreactivity
QVQLVESGGGLVQAGGSLRLSCAASGFYNTMGWYRQAPRKERELVAAISTGGMTNYADSVKGRFTISRDNAKNTVYLQMNSLKPVDTAVYYCAADGYSTVYSTYDYWGQGTQVTVSS	low polyreactivity
QVQLVESGGGLVQAGGSLRLICAASGSIITGYPMGWYRQAPGKERELVAGINSGTSTNFADSVKGRFTISRDNAKNTVFLQMNSMKPEDTAVYYCAKTAERRHYGVYRFDYWGQGTQVTVSS	low polyreactivity
QDQLVESGGGLVQAGGSLRLSCASSGSTFYYKAMGWSRQEPGKERELVARISRSGGSTYADSVKGRFTISRDNAKYTVYLQMNSLKPEDTAVYYCNADAYGTPEFTSYAVRYDYWGQGTQVTVSS	low polyreactivity
QVQLVESGGGLVQAGGSLRLSCAASGSTFAYYAMGWYRPAPGKERELVAVISVRGGSTYYAESVKGRFTISRDNAKNTVYLQMNSLKPEDTAVYYCAADTFAGYYYWGQGTQVTVSS	high polyreactivity
QVQLVESGGGLVQAGGSLRLSCAASGFTFPAYTMGWYRQAPGKEREWVAAITSSGGNTYYADSVKGRFTISRDNAKNTVYLQMNSLKPEDTAVYYCATVSVRWPSNDHVRYDYWGQGTQVTVSS	low polyreactivity
QVQLVESGGGLVQAGGSLRLSCAASGFTFNANAMGWYRQAPGKERELVAVITRSGGRTYYADSVKGRFTISRDNAKNTVYLQMNSLKPEDTEVYYCAKECPSRVYQGTDSASDYWGQGTQVTVSS	high polyreactivity
QVQLQESGAGLLQAGGCLSCTASGTIFGQGDMGWYRQAPGKERELLATINDGASTYYADSVKGRFTISRDKAKNTVYLKKNSLKPDDTAVDYFAVFTDITNYFGYWGQATQVTVSS	low polyreactivity
QVQLVESGGGLVQAGGSLRLSCAASGFTSWDIDMGCYRQAPGIEREMVAAITGGGTTNYADSVKGRFTISRDNAKNTVYLQMNSLKPEDTAVYYCAAKPWWYSGYDYWGQGTQVTVSS	low polyreactivity
QVQLVESGGGLVQAGGSLRLRGAASGNTIRYYAMGWYRQAPGKERELVAAINSRGGTTSYADSVKGRFTISRDNAKNTVYLQMNSLKPEDTAVYYCNKYIRYPFKRYGYWGQGTQVTVSS	high polyreactivity
QVQLVESGGGLVQAGGTLRLSCAASGRTFPSNAMGWYRQAPGKEREFVASITYSGGRTYYADSVKGRFTISRDNAKNTVYLQMNSLKPEDTAVFYCATARYRYHYYSWGQGTQVTVSS	high polyreactivity
QVQHVESGGGLVQAGGSLRLSCAASGRTFFANAMGWYRQAPGKERELVAAITSNTGSTYYADSVKGRFTISRDNAKNTVYLQMNSLKPEDTAVYYCAARGSPRKWTFHYYYWGQGTQVTVSS	high polyreactivity
QVQLVESGGGLVQAGGSLRLSCAASGFTFSRYAMGWYRQAPGKERELVAAITRRGGRTYYADSVKGRFTISRDNAKNTVFLQMNSLKPEDTAVYYCITDAYRLGYDYWGQGTQVTVSS	high polyreactivity
QVQLVESGGGLVQAGGSLRLSCAASGRIFTGNAMGWYRQAPGTERELVAAITKSGGSTYYADSVKGRFTISRDNAKNTVYLQMNSLKPEDTAVYYCAATRYLHYVYKYGYWGQGTQVTVSS	high polyreactivity
QVQLVESGGGLVQAGGSLRLSCAASGFTFALYAMGWYRQAPGKERELVAAISSSGGSTYYADSVKGRFTISRDNAKNTVYLQMNSLKPEDTAVYYCNATRPYRYQSHTRTPRRGYWGQGTQVTVSS	high polyreactivity
QVHLVESGGGLVQAGRSLRLICAASGSTFDYYAMGWYRQAPGKERELVAGIDSAGSTNYADSVKGRFTISRDNAKNTVYLQMNSLKTGRYRGLYCNVGKTITTYAFPTFDYWRQGTQVTVSS	low polyreactivity
QVQLVESGGSLVQAGGSLRLSCDASGRTFGTNAMGWYRQAPRKETELVAAISWRGTSTYYADSVKGRFTNSRDNAKNTVYLQMNSLKPEDTAVYYCAARGYRADQWEYDYWGQGTQVTVSS	low polyreactivity
QVQLVDSGGGLVQAGGSLRLSCAASGSIFYVYAMGWYRQAPGKERELVAAISWTGGSTDYADSVKGRFTISRDNAKNTVYLHMNSLKPEDTAVYYCATELGYGDWYNYWGQGTQVTVSS	low polyreactivity
QVQLVQSGGGLVQAGGSLRLSCAASGRTFYYYPMGWYRPAPGKERELVAAIRWRGGRTYADSVKGRFTISRDNAKNTVYLQMNSLKPEDTAVYYCAVESFYRHASLYDYWGQGTQVTVSS	high polyreactivity

Sequence	polyreactivity (PSR sort gate)
QVQLVESCGGLVQAGGSLRLSCAASGRIFSDYAMGWYRQAPGKERELVATITSGDSTNYADSVKGRFTISRDNAKNTVYLQMNSLKPEDTAVYYCNADRFADYDYWGQGTQVTVSS	low polyreactivity
QVQLVESGRGIVQAGGSLRLSCAASGLSFSNYAMGWYRQAPGKERELVARITTSGGRTYYADSVKGRFTISRDNANNTEYLKMNSLKPEDTAVYYCAANNRRRPSYDYDSWGQGTQVTVSS	low polyreactivity
QVQIVESGGGLDQAGGSLRLSCAASGRTLGYYAMVWYRQAPGIERELVAAISRTGGRTYYADSVKGRFTISLDNAKNTVYLQMNSLKPEDTAVYYCAVVAPDGYDFYYWGQGTQVTVSS	high polyreactivity
QVQLVESGGGLVQAGGSLRLSCAASGRILTFYGMGWYRQAPGKERELVAAISNGGSTYYADSVKGRFTSSRDNAKNTVYLQMNSLKPEDTAVYYCAKRILTAPRRNSGYDYWGPGTQVTVSS	low polyreactivity
QVQLVESGGGLVQAGGSLRLSCAASGIIFEYYAKGWYRQAPGKERELVAAITSDGSTNYADSVKGRFTISRDNEKNTVYLQMNRLKPEDTAVYYCNADLKANIQGVLSTGDDYWGQGTQVTVSS	low polyreactivity
QVQLVESGGGLVQAGGSLRLSCAASGSIFYFYARGWYRLAPGKERELVAAIRFTGGTTYYADSVKGRFTISRDNAKNTVDLQMNSLKPEDTADYYCAKQTSYWSRGFDYWGQGTQVTVSS	low polyreactivity
QVQLVESGGGLVQAGGSLRLSCAASGFIFRDNAMGWSRQAPGKERELVAAISKSGGRTYYADSVKGRFTISRDNAKNTVYLQMNSLKPEETAVYYCAKASRYWSLYYWGQGSQVTVSS	high polyreactivity
QVQLVESGGGLVQAGGSLRLSSAASGFTFSLYRMGWYRQAPGKERELVASISNRGGTFYADSVKGRFTISRDNAKNTVYVQMNSLKPEETAVYYCARKTYYTGDFLGREYGYWGQGPQVTVSS	low polyreactivity
QVQLVESGGGLVQAGGSLRLSSAASGLTFYVYAMGWYRQGPGKEREWVARITWSGGSTYYADSVKGRFTISRDHAKNTVYLQMNSLKPEDTAVYYCAAEWSEESDYWGQGTQVTVSS	low polyreactivity
QVQLVESGGGLVQAGGSLRLSCAASGRIFRGNVMGWYIQAPGKERELVATITSSARTYYADSVKGRFTISRDNAMITVYLQMNSLKPEDTAVYYCAAKTRWNFYYWGQGTQVSVSS	high polyreactivity
QVQLVESGGGLVQAGGSLRLSCAASGRIYWNTMGWYRPAPGKERELVASISTGGGRTYYADSVKGRFTISRDNAKNTVYLQMNSLKPEDTAVYYCAARRGAGYSRFNYWGQGTQVTVSS	high polyreactivity
QVQLVESGGGLVQAGGSLRLSCAASGFIFPWYAMGWYRQAPGKERELVAIISWDTGSTYYADSVKGRFTISRDNAKNTVYLQMNSLKPEDTAVYYCAAAYYYYVSGWFDYWGQGTQVTVSS	low polyreactivity
QVQLVESGGGLVQAGGSLRLSCAASGSTFVQYDMGWYRQAPGKERELVAGITRTGSTYADSVKGRFTISRDNAKNTVYLQMNSLKPEDTADYYCAVYVSGYAQTSRYDYWGQGTQVTVSS	low polyreactivity
QVQLVESGGGLVQAGGSLRLSCAASGFIYPYYAMGCYIQAPGKETELVAGISKSGGRTTYADSVKGRFTISRDNAKNTVYLQMNSLKPEDTAVYYCAAVYRAFPIYEDDYWGQGTQVTVSS	high polyreactivity
QVQLVESGGGLVQAGGSLRLSCAASGLIFTVYAMGWYRQAPGKERELVAAISGTGGSTYYADSVKGRFTISRDNAKNTVYLQMNSLIPEDTAVYYCAAVPIIRLATTSSSRGDYWGQGTQVTVSS	low polyreactivity
QVQLVESGGGLVQAGGRLRISCAASGSTFLDNAMGWYRQAPGKERELVASITSSGGNTYYADSVKGRFTISRDNAKNTVYLQMNRLKPEDTAVYYCAADAASYWGSNSANYDYDYWGQGTQVTVSS	low polyreactivity
QVQLVESGGGLVQAGGSLRLSCAASGITFYFNTMGWYRQAPGKVRELVASISGGSSTYYADSVKGRFTISRDNAKNTVYLQMNSLKPEDTAVYYCNAQGALFRGWFDYDYWGQGTQVTVSS	low polyreactivity
QDQLVESGGGLVQAGGSLRLSCAASGRTFVSYVMGGYRQAPGKERELVAAIRRRGGRTYYSDSVKGRFTISRDNAKNTVYLQMNSLKPEDTAVYYCAAAQPGTNAYRVGSWGQGTQVSVSS	high polyreactivity
QVQLVESGRGLVQAGGSLRLSCAASGRIYRRNAIGWYRQAPGKERELVAAITWSDGSTYYADSVKGRFTISRDNAKNTVYFQMNSLKPEDTAVYYCNKVTRSPSEYDYWGQGTQVTVSS	high polyreactivity
QVQLVESGGGLVPAGGSLRLSCAASGRTFIKYAMGWYRQAPGKERELVAAISRSAGSTYYADSVKGRFTISRDNAKNTVYLQMNSLKPEDTAVYYCNAVTSSYLRFDYWGQGTQVSVSS	high polyreactivity
QVQLVESGGGLVQAGGSLRLSCAASGFTSAVYAMGWYRQAPGKERELVAAIRRGGSTNYADSVKGRFTISRDNAKNTVYLQMNSLKPEDTAVYYCAAAGRGWFGYWGQGTQVTVSS	high polyreactivity
